This is an account of results in US6610500.

Experiment [1] addresses human p140 TrkA receptor (human) (UniProt P04629). Description: 125I[NGF] (~1 nM) binding to E25 cells after preincubation with excess unlabeled mAb 5C3; competitor unlabeled mAb 5C3.
For experiment [2] the target is unchanged. Description: Scatchard analysis of 125I[5C3] binding to 4-3.6 cells, 4° C.
Experiment [3] shares this target. The experiment in a line: summary of the 125I[5C3] binding studies.
Experiment [4] shares this target. The experiment in a line: cell-based or functional assay.
Experiment [5] shares this target. The experiment in a line: Scatchard analysis of 125I[5C3] binding to E25 cells.
For experiment [6] the target is unchanged. The experiment in a line: 125I[NGF] binding to E25 cells after preincubation with excess unlabeled mAb 5C3.
The target is the same in experiment [7]. The experiment in a line: Scatchard analysis of 125I[5C3] binding to E25 cells, 4° C.
Experiment [8] shares this target. The experiment in a line: Scatchard analysis of 125I[5C3] binding to 4-3.6 cells.
The target is the same in experiment [9]. Description: 125I[NGF] binding to E25 cells blocked with 5 µM unlabeled NGF (defined as background).
For experiment [10] the target is unchanged. The experiment in a line: FACScan 5C3 surface staining of 4-3.6 cells after NGF treatment at 37° C., relative to vehicle (100%); competitor mAb 5C3.
For experiment [11] the target is unchanged. The experiment in a line: FACScan 5C3 surface staining of 4-3.6 cells after NGF treatment at 4° C., relative to vehicle (100%); competitor mAb 5C3.

In general, Kd refers to the free concentration of one partner at which half of the binding sites on the other are occupied at equilibrium, for simple one-to-one binding. Low readings indicate tighter binding, high ones weaker binding.

Chain of UniProt P04629 (P04629 33-796): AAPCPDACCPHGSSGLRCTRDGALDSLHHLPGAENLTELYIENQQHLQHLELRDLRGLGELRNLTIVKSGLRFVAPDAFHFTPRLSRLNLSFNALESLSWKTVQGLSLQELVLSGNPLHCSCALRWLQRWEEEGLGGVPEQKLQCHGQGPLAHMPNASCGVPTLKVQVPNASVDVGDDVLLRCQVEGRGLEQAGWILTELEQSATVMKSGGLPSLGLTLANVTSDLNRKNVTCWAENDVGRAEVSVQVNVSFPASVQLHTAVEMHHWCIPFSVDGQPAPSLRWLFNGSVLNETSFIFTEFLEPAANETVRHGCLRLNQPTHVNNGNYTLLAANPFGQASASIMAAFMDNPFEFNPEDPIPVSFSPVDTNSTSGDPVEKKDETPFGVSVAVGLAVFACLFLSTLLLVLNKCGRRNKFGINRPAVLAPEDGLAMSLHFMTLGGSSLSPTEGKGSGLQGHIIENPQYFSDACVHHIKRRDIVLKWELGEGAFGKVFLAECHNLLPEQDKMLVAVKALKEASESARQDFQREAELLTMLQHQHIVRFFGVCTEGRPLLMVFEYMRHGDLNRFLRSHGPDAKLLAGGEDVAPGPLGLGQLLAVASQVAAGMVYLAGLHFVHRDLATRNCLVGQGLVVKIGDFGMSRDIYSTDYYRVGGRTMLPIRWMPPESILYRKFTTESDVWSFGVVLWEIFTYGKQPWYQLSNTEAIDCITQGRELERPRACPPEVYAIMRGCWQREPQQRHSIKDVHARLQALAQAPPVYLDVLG

anti-human TrkA monoclonal antibody 5C3 registered a % NGF BINDING in experiment [1] of 39.3%. The same substance returned a Kd in [2] of 3 nM. The same substance came in with a dissociation constant (Kd) in experiment [3] of 2 nM. Also, in experiment [4], the % 5C3 STAINING after 5C3 (0.01 µg/ml) treatment at 4° C. (receptor internalization, 4-3.6 cells) is 96%; the % 5C3 STAINING after 5C3 (0.01 µg/ml) treatment at 37° C. (receptor internalization, 4-3.6 cells) was found to be 77%; the FOLD INCREASE IN FOCI with respect to mIgG treated cells worked out at 1.9 fold; the TYPICAL CELLS/FOCI (E25 cells in soft agar) was more than 48 cells/foci. In [4], this substance yielded a fold increase in PY of TrkA with respect to untreated cells (4-3.6 cells) of 3.4 fold and a fold increase in PY of TrkA with respect to untreated cells (E25 cells) of 2.7 fold. The 5C3 binding sites/cell in experiment [5] came to 250000 sites/cell. The substance further registered a % inhibition of 125I[NGF] binding in experiment [6] of 60%. The dissociation constant Kd in [7] worked out at 1.6 nM. In experiment [8], the 5C3 binding sites/cell is 200000 sites/cell.

In [9], Nerve Growth Factor (ligand) came in with a % NGF BINDING of 0%. In addition, in experiment [4], the FOLD INCREASE IN FOCI with respect to mIgG treated cells was 1.6 fold, the TYPICAL CELLS/FOCI (E25 cells in soft agar) stood at 24 cells/foci, the fold increase in PY of TrkA with respect to untreated cells (4-3.6 cells) is 3.8 fold and the fold increase in PY of TrkA with respect to untreated cells (E25 cells) worked out at 6.5 fold. The substance further had a % 5C3 STAINING in experiment [10] of 75%. This substance also came in with a % 5C3 STAINING in [11] of 83%.
